The text below walks through data of PMC6138639, “The ZZ-type zinc finger of ZZZ3 modulates the ATAC complex-mediated histone acetylation and gene activation” (Nature Communications, 2018).

Conditions in all cases: both partners purified
Experiment [1] has as its target T1, ZZZ3 ZZ domain (aa 800–903), GST cleaved (human, UniProt Q8IYH5 800-903).
T1 construct: ZZ domain of human ZZZ3, aa 800–903; also called WT ZZZ3 ZZ; source: E. coli BL21 (DE3) RIL, purified (glutathione Sepharose, PreScission cleavage, size-exclusion chromatography)
T1 sequence (looked up): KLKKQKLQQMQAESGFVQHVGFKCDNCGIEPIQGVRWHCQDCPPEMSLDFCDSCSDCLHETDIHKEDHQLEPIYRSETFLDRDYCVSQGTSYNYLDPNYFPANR
Put plainly: MST; displacement assay: unlabeled peptide added to a preformed complex of 5 μM ZZ (aa 800–903) and 80 nM C-terminal fluorescein-labeled H3 (1–12); 20 mM Tris–HCl pH 7.0, 150 mM NaCl, 3 mM DTT.

Experiment [2] addresses T2, ZZZ3 ZZ domain (aa 816–874) (human, UniProt Q8IYH5 816-874).
T2 construct: 13C/15N isotope-labelled sample for the NMR structures
T2 sequence (looked up): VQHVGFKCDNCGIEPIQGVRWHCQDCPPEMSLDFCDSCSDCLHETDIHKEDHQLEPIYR
Kind of experiment: NMR structure; solution structure; 2 mM 13C/15N-labeled ZZZ3 (816–874) with 10 mM H3 (1–12) or 4 mM H3K4ac (1–8); 298 K; 20 mM Tris–HCl pH 7.0, 100 mM NaCl, 5 mM DTT.

Experiment [3] deals with T3, GST-ZZZ3 ZZ domain (amino acids 800–903) (human, UniProt Q8IYH5 800-903).
T3 construct: ZZ-type zinc finger domain of human ZZZ3, amino acids 800–903, in pGEX-6P1; also called GST-fused ZZZ3 ZZ; source: E. coli BL21 (DE3) RIL, purified (glutathione Sepharose 4B)
T3 sequence (looked up): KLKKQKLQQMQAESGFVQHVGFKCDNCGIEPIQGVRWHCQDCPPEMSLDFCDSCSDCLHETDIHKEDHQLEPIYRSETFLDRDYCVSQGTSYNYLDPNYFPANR
Kind of experiment: pull-down; peptide pulldown: 1 µg biotinylated histone peptide with 1–2 µg GST-fused protein in 50 mM Tris–HCl 7.5, 300 mM NaCl, 0.1% NP-40, overnight; streptavidin beads; western blot. For orientation: In western blotting, separated proteins are transferred to a membrane and probed.

Where no end group is shown, it is not given here.

B1: H3K4ac (1–12) peptide, unlabeled (peptide, UniProt P68431 2-13, looked up)
peptide: ARTK(Ac)QTARKSTG
notes: histone H3, aa 1–12; source: synthetic peptide
Take B1: the “fold enhancement of binding over the unmodified H3 peptide” value in experiment [1] was found to be 3 fold.

B2: unmodified histone H3 tail peptide (aa 1–12) (peptide, UniProt P68431 2-13, looked up)
peptide: ARTKQTARKSTG
notes: histone H3, aa 1–12; also called H3 (1–12); H3 peptide; source: synthetic peptide
B2: the binding result in experiment [2] and in experiment [1] was “binds” in each case.

B3: H3K4ac peptide (aa 1–8) (peptide, UniProt P68431 2-9, looked up)
peptide: ARTK(Ac)QTAR
notes: histone H3, aa 1–8; also called H3K4ac (1–8); source: synthetic peptide
Turning to B3, the binding result in experiment [2] is “binds”.

B4: histone H3 peptide of the N-terminal eight amino acids, biotinylated (peptide, UniProt P68431 2-9, looked up)
peptide: ARTKQTAR
modifications: also: biotinylated, position not given here
notes: histone H3, N-terminal eight amino acids; also called The N-terminal eight amino acids of H3; source: synthetic peptide (CPC and Scilight Biotechnology)
For the molecule B4, the binding result in experiment [3] was “binds”.
